{"source": "patent US7612044"}
{"biological_target": "T1, HLA-A2.1 (heavy chain with human beta 2-microglobulin) (human)", "test": "competition with 5 nM radiolabeled HBc18-27 for HLA-A2.1 + b2m, gel filtration", "units": {"IC50": "nM"}}
{"binder": "LLWGQYWQV (modifications not checked)", "note": "[G9-154-1L2L]", "IC50": 1.6}
{"binder": "ITMQVPFSV (modifications not checked)", "note": "[G9-209-3M]", "IC50": 40}
{"binder": "ALWGQYWQV (modifications not checked)", "note": "[G9-154-1A2L]", "IC50": 2.3}
{"binder": "FLWGQYWQV (modifications not checked)", "note": "[G9-154-1F2L]", "IC50": 2.6}
{"binder": "KTFGQYWQV (modifications not checked)", "note": "[G9-154-3F]", "IC50": 21}
{"binder": "KMWGQYWQV (modifications not checked)", "note": "[G9-154-2M]", "IC50": 6.5}
{"binder": "ILSQVPFSV (modifications not checked)", "note": "[G9-209-2L3S]", "IC50": 20}
{"binder": "KTYGQYWQV (modifications not checked)", "note": "[G9-154-3Y]", "IC50": 30}
{"binder": "YTWGQYWQV (modifications not checked)", "note": "[G9-154-1Y]", "IC50": 2.5}
{"binder": "FTWGQYWQV (modifications not checked)", "note": "[G9-154-1F]", "IC50": 1.6}
{"binder": "WTWGQYWQV (modifications not checked)", "note": "[G9-154-1W]", "IC50": 60}
{"binder": "LTWGQYWQV (modifications not checked)", "note": "[G9-154-1L]", "IC50": 3.4}
{"binder": "YLWGQYWQV (modifications not checked)", "note": "[G9-154-1Y2L]", "IC50": 1.7}
{"binder": "KIWGQYWQV (modifications not checked)", "note": "[G9-154-2I]", "IC50": 3}
{"binder": "ATWGQYWQV (modifications not checked)", "note": "[G9-154-1A]", "IC50": 5.2}
{"binder": "KLWGQYWQV (modifications not checked)", "note": "[G9-154-2L]", "IC50": 2}
{"binder": "ILYQVPFSV (modifications not checked)", "note": "[G9-209-2L3Y]", "IC50": 5}
{"binder": "WLWGQYWQV (modifications not checked)", "note": "[G9-154-1W2L]", "IC50": 2.8}
{"biological_target": "T1, HLA-A2.1 (heavy chain with human beta …)", "test": "competition with radiolabeled HBc18-27 for soluble HLA-A2.1 + b2m, gel filtration", "units": {"IC50": "nM"}}
{"binder": "YMNGTMSQV (modifications not checked)", "note": "[tyrosinase peptide T9369]", "IC50": 40}
{"binder": "LLDGTATLRL (modifications not checked)", "note": "[gp100 peptide G10-4]", "IC50": 483}
{"binder": "VLYRYGSFSV (modifications not checked)", "note": "[gp100 peptide G10-5]", "IC50": 13}
{"biological_target": "T1, HLA-A2.1 (heavy chain with human beta …)", "test": "IC50 of standard HBc18-27 peptide ([…] nM) / IC50 of sample peptide, same competition assay"}
{"binder": "YMNGTMSQV (modifications not checked)", "note": "[tyrosinase peptide T9369]", "Ratio to Standard": 0.13}
{"binder": "LLDGTATLRL (modifications not checked)", "note": "[gp100 peptide G10-4]", "Ratio to Standard": 0.01}
{"binder": "VLYRYGSFSV (modifications not checked)", "note": "[gp100 peptide G10-5]", "Ratio to Standard": 0.38}
